Article PMC4196948
Values joined by “and” are separate entries in the source; they are usually repeats but may differ in a detail not shown here. Equal values may be shown once.

Experiments:
[1] = target: tcSOD truncation mutant M202 (residues 1-201) (not stated (metagenomic library of hot springs in Tengchong, China)); experiment: cross-linking; glutaraldehyde, 20 mM sodium phosphate pH 7.4, after heating at 25°C or 80°C for 50 min, cross-linked 1 or 5 min; read by 12.5% SDS-PAGE
[2] = target: wild type tcSOD (hyperthermostable Fe-superoxide dismutase from Tengchong hot springs) (not stated (metagenomic library of hot springs in Tengchong, China)); experiment: SEC; Superdex 200HR 10/30, 20 mM sodium phosphate pH 7.4, 25°C, 0.5 ml/min; protein 0.1 to 1.0 mg/ml, not cross-linked
[3] = target: wild type tcSOD (hyperthermostable Fe-superoxide dismutase from Tengchong hot springs) (not stated (metagenomic library of hot springs in Tengchong, China)); experiment: cross-linking; 0.5 mM DSP for 10 min after 50 min at the given temperature, without DTT; read by SDS-PAGE and native-PAGE
[4] = target: wild type tcSOD (hyperthermostable Fe-superoxide dismutase from Tengchong hot springs) (not stated (metagenomic library of hot springs in Tengchong, China)); experiment: cross-linking; glutaraldehyde, 20 mM sodium phosphate pH 7.4, after heating at 25°C or 80°C for 50 min, cross-linked 1 or 5 min; read by 12.5% SDS-PAGE
[5] = target: wild type tcSOD (hyperthermostable Fe-superoxide dismutase from Tengchong hot springs) (not stated (metagenomic library of hot springs in Tengchong, China)); experiment: native gel or EMSA; 10% native-PAGE (also 5-15% gradient native-PAGE), 20 mM PBS pH 7.4, 0.1-1.0 mg/ml (mutants 1 mg/ml); the predominant oligomer (quaternary structure)
[6] = target: wild type tcSOD (hyperthermostable Fe-superoxide dismutase from Tengchong hot springs) (not stated (metagenomic library of hot springs in Tengchong, China)); experiment: native gel or EMSA; tetramers and high-order oligomers separated by ion exchange (Resource Q), concentrated to 0.3 mg/ml, heated at 80°C or 95°C, then 10% native-PAGE; step: tetramers to octamers
[7] = target: wild type tcSOD (hyperthermostable Fe-superoxide dismutase from Tengchong hot springs) (not stated (metagenomic library of hot springs in Tengchong, China)); experiment: native gel or EMSA; 10% native-PAGE (also 5-15% gradient), 20 mM PBS pH 7.4, 0.1-1.0 mg/ml (mutants 1 mg/ml), bands quantified by GIS software; step: tetramers to high-order oligomers; fractions almost unchanged with 0-5 M NaCl, pH 3-11 or 80°C for 60 min

Substance: tcSOD truncation mutant M202 (residues 1-201) (domain or fragment)
- stoichiometry N [1]: 4 and 2

Substance: wild type tcSOD (hyperthermostable Fe-superoxide dismutase from Tengchong hot springs) (enzyme)
- stoichiometry N [2]: 4
- stoichiometry N [3]: 2
- stoichiometry N [4]: 4 and 2
- stoichiometry N [5]: 4
- stoichiometry N [6]: 8
- fraction of high-order oligomers (at 0.1 mg/ml) [7]: 1.5%
- fraction of high-order oligomers (at 1.0 mg/ml) [7]: 5%
- stoichiometry N [7]: > 8
